Data on one sequence can be found in patent publication US20220169693A1, “Screening Assays, Modulators and Modulation of Intracellular Signalling Mediated by Immunoglobulin Superfamily Cell Adhesion Molecules” (Monash University, priority 2018, published 2022).

Test [1] addresses T1, full length murine ALCAM1-583 (Mus musculus, UniProt Q61490).
T1 construct: host or cells: AT1R-CHO (CHO stably transfected with human AT1R-Rluc8), transient transfection; untagged clone in pCMV6
T1 sequence (Q61490 28-583): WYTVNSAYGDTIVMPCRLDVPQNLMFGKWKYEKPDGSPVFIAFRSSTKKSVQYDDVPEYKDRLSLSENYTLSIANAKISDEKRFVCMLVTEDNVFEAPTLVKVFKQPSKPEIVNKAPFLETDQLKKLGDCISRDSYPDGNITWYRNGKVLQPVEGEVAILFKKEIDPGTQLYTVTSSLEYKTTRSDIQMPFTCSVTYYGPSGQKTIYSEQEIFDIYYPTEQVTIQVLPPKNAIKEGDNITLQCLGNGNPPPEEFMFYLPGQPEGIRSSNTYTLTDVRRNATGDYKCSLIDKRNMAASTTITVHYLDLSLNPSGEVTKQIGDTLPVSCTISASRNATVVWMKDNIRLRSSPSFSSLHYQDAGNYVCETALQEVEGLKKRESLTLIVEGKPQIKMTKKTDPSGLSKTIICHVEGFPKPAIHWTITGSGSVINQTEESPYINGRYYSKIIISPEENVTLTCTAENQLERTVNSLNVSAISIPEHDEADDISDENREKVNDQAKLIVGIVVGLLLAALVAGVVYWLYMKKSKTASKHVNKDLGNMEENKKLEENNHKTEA
The test can be described thus: Ang II-induced p65/PCNA expression in AT1R-CHO cells transfected with full length murine ALCAM (qRT-PCR). The format is cell-based. The method, then: (§1) Adult retinal pigment epithelial (ARPE) cells were cultured in Dulbecco's modified Eagle's medium (DMEM)/F12 endothelial cell growth supplement (ECGS) supplemented media. Chinese Hamster Ovary (CHO) cells were cultured using F12 media (10% FCS with 2 mM glutamine). Human microvascular endothelial cells (HMEC) were cultured in MCDB 131 medium (10% FCS with 10 mM glutamine, EGF and hydrocortisone).
(§2) 100 ng of AT1R-Rluc8 construct was transfected into CHO cells using Lipofectamine 2000 (Thermo). Stable transfectants were selected using G418. AT1R-CHO were then transiently transfected with the IgSF CAM and/or RAGE constructs using Lipofectamine 2000 (Invitrogen) and incubated for 16h.
Oligonucleotides were designed and ordered to generate the ALCAM, BCAM and MCAM intracellular (cytosolic) domains. These included a 5′ NheI site, Kozak sequence and initiating Methionine and then DNA sequences corresponding to ALCAM residues 552-583, BCAM residues 569-628 and MCAM residues 584-637 respectively (Note that as residue 551 of ALCAM is Methionine, the cytosolic tail of ALCAM effectively corresponded to residues 551-583). The pCIneo parental vector was digested with NheI and NotI restriction enzymes, and the DNA of the fragments of the ALCAM, BCAM and MCAM tails/cytosolic domains were ligated into the digested plasmid. After transformation and recovery, colonies were screened and individual clones sequenced. The sequence of the insert was confirmed by DNA sequencing (Micromon, Monash University). A full-length clone of Mouse ALCAM (BC027280) was purchased from Origene. The untagged clone was supplied in the vector pCMV6. […]
(§3) After 2 hours of exposure to Ang II (1 μM) cells were placed in Trizol, mRNA extracted and cDNA synthesized. Changes in the gene expression of the NFκB subunit, p65 (RelA) or NFκB-activated target genes (e.g ICAM-1) were estimated by quantitative real-time RT-PCR, performed using the TaqMan system based on real-time detection of accumulated fluorescence (ABI Prism 7700, Perkin-Elmer Inc, PE Biosystems, Foster City, Calif., USA). […]
In general terms: In qPCR the cycle at which signal appears reflects the starting amount.

In test [2] the target is T2, human ALCAM (ALCAM1-583, cytosolic tail ALCAM551-583) (Homo sapiens, UniProt Q13740).
T2 construct: expressed in transfected cells; host or cells: AT1R-CHO (CHO stably transfected with human AT1R-Rluc8), transient transfection
T2 sequence (Q13740 551-583): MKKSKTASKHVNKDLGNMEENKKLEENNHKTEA
Nature of the test: Ang II-induced p65/PCNA expression in AT1R-CHO cells transfected with human ALCAM (full length or cytosolic tail). To be noted: Ang II 1 μM, co-transfection (FIG. 3G, 1E). The format is cell-based. The method, then: as §1, §2
(§4) Oligonucleotides were designed and ordered to generate the ALCAM, BCAM and MCAM intracellular (cytosolic) domains. These included a 5′ NheI site, Kozak sequence and initiating Methionine and then DNA sequences corresponding to ALCAM residues 552-583, BCAM residues 569-628 and MCAM residues 584-637 respectively (Note that as residue 551 of ALCAM is Methionine, the cytosolic tail of ALCAM effectively corresponded to residues 551-583). The pCIneo parental vector was digested with NheI and NotI restriction enzymes, and the DNA of the fragments of the ALCAM, BCAM and MCAM tails/cytosolic domains were ligated into the digested plasmid. After transformation and recovery, colonies were screened and individual clones sequenced. The sequence of the insert was confirmed by DNA sequencing (Micromon, Monash University). A full-length clone of Mouse ALCAM (BC027280) was purchased from Origene. The untagged clone was supplied in the vector pCMV6. Overlapping DNA sequences were ordered to generate the ALCAM559-580 fragment oligonucleotide. These included a 5′ NheI site, Kozak sequence and initiating Methionine and then DNA sequences corresponding to ALCAM residues 559-580. The pCIneo parental vector was digested with NheI and NotI restriction enzymes, and the ALCAM559-580 construct DNA was ligated into the digested plasmid. After transformation and recovery, colonies were screened and individual clones sequenced.
(§5) After 2 hours of exposure to Ang II (1 μM) cells were placed in Trizol, mRNA extracted and cDNA synthesized. Changes in the gene expression of the NFκB subunit, p65 (RelA) or NFκB-activated target genes (e.g ICAM-1) were estimated by quantitative real-time RT-PCR, performed using the TaqMan system based on real-time detection of accumulated fluorescence (ABI Prism 7700, Perkin-Elmer Inc, PE Biosystems, Foster City, Calif., USA). Gene expression was normalized to 18S mRNA and reported as fold change compared to the level of expression in untreated control mice/cells, which were given an arbitrary value of 1.

Test [3] deals with human ALCAM (ALCAM1-583, cytosolic tail ALCAM551-583). The test is described as above. It counts as cell-based. The settings on record: Ang II 1 μM, co-transfection, text: cytosolic tail ALCAM551-583, legend: full length ALCAM1-583. As to the method:
as §1, §2, §4, §5

Test [4] has as its system full length chicken EpCAM. Nature of the test: Ang II-induced p65 expression in AT1R-CHO cells transfected with full length chicken EpCAM. It counts as cell-based. To be noted: Ang II 1 μM, co-transfection (FIG. 3D). As to the method:
as §1, §2, §5

A further test concerns AT1R-CHO cells. Nature of the test: p65 expression in AT1R-CHO cells expressing the truncated construct alone. The format is cell-based, Chinese Hamster. To be noted: AT1R-CHO cells, Ang II 1 μM (FIG. 3A, 5A, 5B). The method, then:
as §1, §2, §4, §5

Test [5] has as its target T3, full length RAGE1-404 transactivated by C5a receptor 1 (Homo sapiens, UniProt Q15109).
T3 construct: expressed in transfected cells; host or cells: human ARPE (adult retinal pigment epithelial) cells
Nature of the test: C5a-induced ICAM-1 expression in ARPE cells transfected with C5aR1 and full length RAGE. The format is cell-based. To be noted: C5a 1 μM, co-expression (FIG. 6B).

The next test addresses full length RAGE1-404 (Homo sapiens, UniProt Q15109). The test can be described thus: Ang II-induced p65 expression in AT1R-CHO cells transfected with full length human RAGE. The settings on record: Ang II 1 μM 2 h, co-transfection (FIG. 6A). It counts as cell-based. Set-up: expressed in transfected cells; host or cells: AT1R-CHO (CHO stably transfected with human AT1R-Rluc8), transient transfection. The method, then:
as §1, §2, §5

The target of test [6] is T4, cytosolic tail of MCAM, MCAM584-637 (Homo sapiens, UniProt P43121).
T4 sequence (P43121 with tags, fused parts or gaps): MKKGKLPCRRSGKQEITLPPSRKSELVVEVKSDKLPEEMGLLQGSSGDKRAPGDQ
The test can be described thus: Ang II-induced p65 expression in AT1R-CHO cells transfected with cytosolic tail of MCAM. It counts as cell-based. Set-up: corresponds to residues 584-637 of MCAM plus an initiating Methionine; initiating Methionine (N); expressed in transfected cells; host or cells: AT1R-CHO (CHO stably transfected with human AT1R-Rluc8); insert in pCIneo. The settings on record: Ang II 1 μM, co-transfection (FIG. 3I). The method, then:
as §1, §2
Oligonucleotides were designed and ordered to generate the ALCAM, BCAM and MCAM intracellular (cytosolic) domains. […]
as §3

Chain of full length chicken EpCAM (as listed by the source): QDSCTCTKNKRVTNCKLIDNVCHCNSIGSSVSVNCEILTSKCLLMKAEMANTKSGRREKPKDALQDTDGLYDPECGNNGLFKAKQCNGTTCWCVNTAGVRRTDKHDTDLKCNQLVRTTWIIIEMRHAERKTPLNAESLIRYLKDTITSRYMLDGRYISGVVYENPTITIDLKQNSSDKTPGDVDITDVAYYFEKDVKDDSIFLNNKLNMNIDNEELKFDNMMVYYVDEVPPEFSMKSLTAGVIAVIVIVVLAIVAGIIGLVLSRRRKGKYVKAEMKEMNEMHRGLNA
Chain of full length RAGE1-404 (Q15109 23-404): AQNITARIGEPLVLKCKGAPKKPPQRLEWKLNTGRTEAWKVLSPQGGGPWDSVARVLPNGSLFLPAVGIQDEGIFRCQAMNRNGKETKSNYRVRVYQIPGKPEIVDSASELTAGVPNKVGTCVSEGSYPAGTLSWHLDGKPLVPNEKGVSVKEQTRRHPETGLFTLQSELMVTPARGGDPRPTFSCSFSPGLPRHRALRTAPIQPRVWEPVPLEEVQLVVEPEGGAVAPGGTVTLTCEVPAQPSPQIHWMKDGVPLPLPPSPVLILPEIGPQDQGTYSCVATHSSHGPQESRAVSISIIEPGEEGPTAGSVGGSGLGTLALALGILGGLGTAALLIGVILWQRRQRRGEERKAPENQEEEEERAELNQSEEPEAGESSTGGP
T3 sequence (Q15109 23-404): as above

For MKHVNKDLGNMEENKKLEENNHK [ALCAM559-580], the “induction of p65-NFκB expression by Ang II via AT1R-dependent transactivation of full length murine ALCAM1-583” value in test [1] (Ang II 1 μM 2 h, co-transfection of the construct, vs pCIneo (FIG. 3B, 5B)) is reported as “prevents induction”. Further, the “p65-NFκB dependent induction of PCNA expression by Ang II via full length murine ALCAM1-583” value in test [1] (Ang II 1 μM, co-transfection (FIG. 3C)) is “prevents induction”. Besides, in test [2], the “induction of p65-NFκB expression by Ang II via transactivation of the cytosolic tail of human ALCAM, ALCAM551-583” value is “prevents induction”. Also, in test [3], the “induction of p65-NFκB expression by Ang II via transactivation of human ALCAM (FIG. 3E)” value is listed as “prevents induction” and the “p65-NFκB dependent induction of PCNA expression by Ang II via human ALCAM (FIG. 3F)” value is “prevents induction”. The “induction of p65-NFκB expression by Ang II via transactivation of full length chicken EpCAM” value in test [4] is listed as “prevents induction”. In addition, the “induction of p65 expression by Ang II when the construct alone is expressed” value with AT1R-CHO cells is “failed to increase the expression of p65”. In addition, the “RAGE-dependent induction of ICAM-1 expression following transactivation of RAGE by C5a receptor 1” value in test [5] was “inhibits”. The “induction of p65 expression mediated by full length human RAGE1-404 transactivated by AT1 receptor” value with full length RAGE1-404 was “inhibits”. Besides, in test [6], the “induction of p65-NFκB expression by Ang II via transactivation of MCAM584-637” value is listed as “prevents induction”.
